Columns and labels:
[1] = target: T. thermophilus Csm2 (T. thermophilus); assay: cryo-EM structure; TthCsm bound to a 50-nt complementary target RNA, with noncomplementary ssDNA and 1 mM EDTA; 3.8 Å
[2] = target: T. thermophilus Csm3 (T. thermophilus); assay: as above

stoichiometry N [1]	stoichiometry N [2]	Substance
4		T. thermophilus Csm2 (natural protein)
	6	T. thermophilus Csm3 (natural protein)
